{"source": "patent US20250134947A1", "about": "“TRI-, TETRA AND PENTAPEPTIDES, COMPOSITIONS THEREOF AND THEIR USE IN THE THERAPY OF PSORIASIS” (ENUMITA AS, priority 2021, published 2025)"}
{"molecular_target": "T1, transformation of SerpinB3 to Pso p27 with chymase (Homo sapiens, UniProt P29508)", "T1 construct": "made in house; host or cells: Escherichia coli BL21 (DE3) RIPL (Stratagene)", "T1 sequence (P29508 1-390)": "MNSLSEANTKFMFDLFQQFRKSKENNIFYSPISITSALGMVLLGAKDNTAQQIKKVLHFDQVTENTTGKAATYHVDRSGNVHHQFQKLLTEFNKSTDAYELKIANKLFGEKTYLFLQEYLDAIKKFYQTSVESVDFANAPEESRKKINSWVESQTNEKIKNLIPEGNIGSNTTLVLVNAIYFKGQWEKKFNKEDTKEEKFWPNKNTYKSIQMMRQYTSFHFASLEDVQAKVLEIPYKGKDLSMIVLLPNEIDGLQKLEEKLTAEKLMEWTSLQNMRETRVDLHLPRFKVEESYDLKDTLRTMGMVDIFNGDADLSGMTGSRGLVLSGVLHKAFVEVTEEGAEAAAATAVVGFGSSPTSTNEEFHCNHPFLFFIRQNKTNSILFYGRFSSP", "assay": "Test of peptides: inhibition of chymase transformation of SerpinB3 to Pso p27, SDS-gel-electrophoresis", "type": "biochemical", "conditions": "SerpinB3 2 μg in 35 μl PBS, peptide 5 μl (10 mg/ml) 1 hour at 37C°, then 1 μl chymase over night at 37C°", "experimental": "In this Example, peptides were tested in order to find out whether they are able to prevent and/or inhibit the formation of Pso p27. The peptides were purchased from Biomatik Corporation, 4 Third Ave, Kitchener, Ontario, N2C 1N6, Canada, and analyzed with respect to prevention and/or inhibiting potential. The following methods were used:\nExpression vector pMCSG7 Serpin B3 (Clone ID: HsCD00343153) was used. Recombinant SerpinB3 was expressed in Escherichia coli BL21 (DE3) RIPL (Stratagene) and purified as described by Lysvand H, Helland R, Hagen L, Slupphaug G, Iversen OJ., “Psoriasis pathogenesis-Pso p27 is generated from SCCA 1 with chymase”, Biochim. Biophys. Acta 1842 (2014) 734-738.\nSerpinB3 solved in phosphate-buffered saline (PBS) (2 μg in 35 μl PBS) was incubated with a tripeptide or tetrapeptide 5 μl (10 mg/ml) for 1 hour at 37C°. 1 μl chymase was added and the mixture was incubated over night at 37C°. The solution was analyzed by SDS-gel-electrophoresis.\nSDS-gel-electrophoresis was performed as described by Iversen O J, Lysvand H, Hagen L., “The autoantigen Pso p27: a post-translational modification of SCCA molecules”, Autoimmunity 44 (2011) 229-234."}
{"substance": "Asp-Asp-Lys-Pro (DDKP) [tetrapeptide]", "prevention and/or inhibition of the cleavage reaction of the serpin molecules SerpinB3/B4, and/or prevention and/or inhibition of the formation of Pso p27": "effective"}
{"substance": "Asp-Asp-Pro [DDP]", "prevention and/or inhibition of the cleavage reaction of the serpin molecules SerpinB3/B4, and/or prevention and/or inhibition of the formation of Pso p27": "effective"}
{"substance": "Asp-Asp-Pro-Lys (DDPK) [tetrapeptide]", "prevention and/or inhibition of the cleavage reaction of the serpin molecules SerpinB3/B4, and/or prevention and/or inhibition of the formation of Pso p27": "effective"}
{"substance": "Asp-Glu-Leu-Pro (DELP) [tetrapeptide]", "prevention and/or inhibition of the cleavage reaction of the serpin molecules SerpinB3/B4, and/or prevention and/or inhibition of the formation of Pso p27": "effective"}
{"substance": "Asp-Glu-Pro [DEP]", "prevention and/or inhibition of the cleavage reaction of the serpin molecules SerpinB3/B4, and/or prevention and/or inhibition of the formation of Pso p27": "effective"}
{"substance": "Asp-Glu-Pro-Asn (DEPN) [tetrapeptide]", "prevention and/or inhibition of the cleavage reaction of the serpin molecules SerpinB3/B4, and/or prevention and/or inhibition of the formation of Pso p27": "effective"}
{"substance": "Asp-Glu-Pro-Leu (DEPL) [tetrapeptide]", "prevention and/or inhibition of the cleavage reaction of the serpin molecules SerpinB3/B4, and/or prevention and/or inhibition of the formation of Pso p27": "effective"}
{"substance": "Asp-Leu-Glu-Pro (DLEP) [tetrapeptide]", "prevention and/or inhibition of the cleavage reaction of the serpin molecules SerpinB3/B4, and/or prevention and/or inhibition of the formation of Pso p27": "effective"}
{"substance": "Asp-Lys-Pro-Asp (DKPD) [tetrapeptide]", "prevention and/or inhibition of the cleavage reaction of the serpin molecules SerpinB3/B4, and/or prevention and/or inhibition of the formation of Pso p27": "effective"}
{"substance": "Asp-Pro-Asn-Glu (DPNE) [tetrapeptide]", "prevention and/or inhibition of the cleavage reaction of the serpin molecules SerpinB3/B4, and/or prevention and/or inhibition of the formation of Pso p27": "effective"}
{"substance": "Asp-Pro-Glu [DPE]", "prevention and/or inhibition of the cleavage reaction of the serpin molecules SerpinB3/B4, and/or prevention and/or inhibition of the formation of Pso p27": "effective"}
{"substance": "Asp-Pro-Glu-Asn (DPEN) [tetrapeptide]", "prevention and/or inhibition of the cleavage reaction of the serpin molecules SerpinB3/B4, and/or prevention and/or inhibition of the formation of Pso p27": "effective"}
{"substance": "Asp-Pro-Glu-Leu (DPEL) [tetrapeptide]", "prevention and/or inhibition of the cleavage reaction of the serpin molecules SerpinB3/B4, and/or prevention and/or inhibition of the formation of Pso p27": "effective"}
{"substance": "Asp-Pro-Leu-Glu (DPLE) [tetrapeptide]", "prevention and/or inhibition of the cleavage reaction of the serpin molecules SerpinB3/B4, and/or prevention and/or inhibition of the formation of Pso p27": "effective"}
{"substance": "Glu-Asn-Asp-Pro (ENDP) [tetrapeptide]", "prevention and/or inhibition of the cleavage reaction of the serpin molecules SerpinB3/B4, and/or prevention and/or inhibition of the formation of Pso p27": "effective"}
{"substance": "Glu-Asp-Asn-Pro (EDNP) [tetrapeptide]", "prevention and/or inhibition of the cleavage reaction of the serpin molecules SerpinB3/B4, and/or prevention and/or inhibition of the formation of Pso p27": "effective"}
{"substance": "Glu-Asp-Leu-Pro (EDLP) [tetrapeptide]", "prevention and/or inhibition of the cleavage reaction of the serpin molecules SerpinB3/B4, and/or prevention and/or inhibition of the formation of Pso p27": "effective"}
{"substance": "Glu-Pro-Asp [EPD]", "prevention and/or inhibition of the cleavage reaction of the serpin molecules SerpinB3/B4, and/or prevention and/or inhibition of the formation of Pso p27": "effective"}
